{
  "source": "patent US20250352667A1",
  "key": {"[1]": {"target": "KEAP1 (wild-type full-length), His-tagged (human) (UniProt Q14145)", "sequence (Q14145 2-624 limits assumed)": "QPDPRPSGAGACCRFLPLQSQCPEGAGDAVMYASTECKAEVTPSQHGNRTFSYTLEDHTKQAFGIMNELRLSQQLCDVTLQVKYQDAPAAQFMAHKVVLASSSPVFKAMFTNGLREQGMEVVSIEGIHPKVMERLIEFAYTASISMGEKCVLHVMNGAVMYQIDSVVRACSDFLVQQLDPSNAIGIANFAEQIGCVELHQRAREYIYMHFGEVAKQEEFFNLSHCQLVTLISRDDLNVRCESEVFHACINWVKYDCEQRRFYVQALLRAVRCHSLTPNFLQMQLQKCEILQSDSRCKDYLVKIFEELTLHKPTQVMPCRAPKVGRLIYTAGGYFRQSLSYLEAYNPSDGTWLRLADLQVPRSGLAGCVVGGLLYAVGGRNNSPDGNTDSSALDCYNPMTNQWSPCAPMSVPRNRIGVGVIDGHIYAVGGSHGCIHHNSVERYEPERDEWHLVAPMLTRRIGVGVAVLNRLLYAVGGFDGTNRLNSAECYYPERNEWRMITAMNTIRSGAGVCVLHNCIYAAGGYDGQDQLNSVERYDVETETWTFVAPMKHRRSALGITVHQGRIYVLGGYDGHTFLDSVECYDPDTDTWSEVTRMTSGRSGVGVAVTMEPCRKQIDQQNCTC", "assay": "AlphaScreen; FLAG-NRF2 wt isoform 1 9.6 nM, His-KEAP1 150 nM; Repeat 1; positive control for Q75R"}, "[2]": {"target": "KEAP1 (wild-type full-length), His-tagged (human) (UniProt Q14145)", "assay": "AlphaScreen; NRF2 wt isoform 1 9.6 nM, KEAP1 150 nM; set as the 100 % reference for Q75R"}, "[3]": {"target": "KEAP1 (wild-type full-length), His-tagged (human) (UniProt Q14145)", "assay": "AlphaScreen; NRF2 wt isoform 1 19.2 nM, KEAP1 150 nM; set as the 100 % reference for I86V"}, "[4]": {"target": "KEAP1 (wild-type full-length), His-tagged (human) (UniProt Q14145)", "assay": "AlphaScreen; 4.8 nM FLAG-NRF2, 150 nM His-KEAP1; signal against NRF2 only; control for I28V"}, "[5]": {"target": "KEAP1 (wild-type full-length), His-tagged (human) (UniProt Q14145)", "assay": "AlphaScreen; 2.4 nM FLAG-NRF2, 150 nM His-KEAP1; Rep 2; control for I86V"}, "[6]": {"target": "KEAP1 (wild-type full-length), His-tagged (human) (UniProt Q14145)", "assay": "AlphaScreen; NRF2 wt isoform 1 2.4 nM, KEAP1 150 nM; signal against NRF2-only control; control for Q75R"}, "[7]": {"target": "KEAP1 (wild-type full-length), His-tagged (human) (UniProt Q14145)", "assay": "AlphaScreen; 2.4 nM FLAG-NRF2, 150 nM His-KEAP1; signal against NRF2 only; control for I28V"}, "[8]": {"target": "KEAP1 (wild-type full-length), His-tagged (human) (UniProt Q14145)", "assay": "AlphaScreen; FLAG-NRF2 I86V 4.8 nM, His-KEAP1 150 nM; Rep 3"}, "[9]": {"target": "KEAP1 (wild-type full-length), His-tagged (human) (UniProt Q14145)", "assay": "AlphaScreen; NRF2 Q75R 307.2 nM, KEAP1 150 nM; signal against NRF2-only control"}},
  "data": [
    {"binder": "NRF2 isoform 1 (wild-type full-length), FLAG-tagged (protein) MMDLELPPPGLPSQQDMDLIDILWRQDIDLGVSREVFDFSQRRKEYELEKQKKLEKERQEQLQKEQEKAFFAQLQLDEETGEFLPIQPAQHIQSETSGSANYSQVAHIPKSDALYFDDCMQLLAQTFPFVDDNEVSSATFQSLVPDIPGHIESPVFIATNQAQSPETSVAQVAPVDLDGMQQDIEQVWEELLSIPELQCLNIENDKLVETTMVPSPEAKLTEVDNYHFYSSIPSMEKEVGNCSPHFLNAFEDSFSSILSTEDPNQLTVNSLNSDATVNTDFGDEFYSAFIAEPSISNSMPSPATLSHSLSELLNGPIDVSDLSLCKAFNQNHPESTAEFNDSDSGISLNTSPSVASPEHSVESSSYGDTLLGLSDSEVEELDSAPGSVKQNGPKTPVHSSGDMVQPLSPSQGQSTHVHDAQCENTPEKELPVSPGHRKTPFTKDKHSSRLEAHLTRDELRAKALHIPFPVEKIINLPVVDFNEMMSKEQFNEAQLALIRDIRRRGKNKVAAQNCRKRKLENIVELEQDLDHLKDEKEKLLKEKGENDKSLHLLKKQLSTLYLEVFSMLRDEDGKPYSPSEYSLQQTRDGNVFLVPKSKKPDVKKN", "values": [
      {"measurement": "A-counts (NRF2 plus KEAP1)", "setting": "[1]", "value": 1024, "unit": "A-counts"},
      {"measurement": "Binding Percentage", "setting": "[2]", "value": 100, "unit": "%"},
      {"measurement": "Binding Percentage", "setting": "[3]", "value": 100, "unit": "%"},
      {"measurement": "S/N", "setting": "[4]", "value": 3.2},
      {"measurement": "A-counts", "setting": "[5]", "value": 959, "unit": "A-counts"},
      {"measurement": "S/N", "setting": "[6]", "value": 1.4},
      {"measurement": "S/N", "setting": "[7]", "value": 2.2}
    ]},
    {"binder": "NRF2 isoform 1 (I86V full-length), FLAG-tagged (protein) MMDLELPPPGLPSQQDMDLIDILWRQDIDLGVSREVFDFSQRRKEYELEKQKKLEKERQEQLQKEQEKAFFAQLQLDEETGEFLPVQPAQHIQSETSGSANYSQVAHIPKSDALYFDDCMQLLAQTFPFVDDNEVSSATFQSLVPDIPGHIESPVFIATNQAQSPETSVAQVAPVDLDGMQQDIEQVWEELLSIPELQCLNIENDKLVETTMVPSPEAKLTEVDNYHFYSSIPSMEKEVGNCSPHFLNAFEDSFSSILSTEDPNQLTVNSLNSDATVNTDFGDEFYSAFIAEPSISNSMPSPATLSHSLSELLNGPIDVSDLSLCKAFNQNHPESTAEFNDSDSGISLNTSPSVASPEHSVESSSYGDTLLGLSDSEVEELDSAPGSVKQNGPKTPVHSSGDMVQPLSPSQGQSTHVHDAQCENTPEKELPVSPGHRKTPFTKDKHSSRLEAHLTRDELRAKALHIPFPVEKIINLPVVDFNEMMSKEQFNEAQLALIRDIRRRGKNKVAAQNCRKRKLENIVELEQDLDHLKDEKEKLLKEKGENDKSLHLLKKQLSTLYLEVFSMLRDEDGKPYSPSEYSLQQTRDGNVFLVPKSKKPDVKKN", "values": [
      {"measurement": "A-counts (NRF2 plus KEAP1)", "setting": "[8]", "value": 2180, "unit": "A-counts"}
    ]},
    {"binder": "NRF2 isoform 1 (Q75R full-length), FLAG-tagged (protein) MMDLELPPPGLPSQQDMDLIDILWRQDIDLGVSREVFDFSQRRKEYELEKQKKLEKERQEQLQKEQEKAFFAQLRLDEETGEFLPIQPAQHIQSETSGSANYSQVAHIPKSDALYFDDCMQLLAQTFPFVDDNEVSSATFQSLVPDIPGHIESPVFIATNQAQSPETSVAQVAPVDLDGMQQDIEQVWEELLSIPELQCLNIENDKLVETTMVPSPEAKLTEVDNYHFYSSIPSMEKEVGNCSPHFLNAFEDSFSSILSTEDPNQLTVNSLNSDATVNTDFGDEFYSAFIAEPSISNSMPSPATLSHSLSELLNGPIDVSDLSLCKAFNQNHPESTAEFNDSDSGISLNTSPSVASPEHSVESSSYGDTLLGLSDSEVEELDSAPGSVKQNGPKTPVHSSGDMVQPLSPSQGQSTHVHDAQCENTPEKELPVSPGHRKTPFTKDKHSSRLEAHLTRDELRAKALHIPFPVEKIINLPVVDFNEMMSKEQFNEAQLALIRDIRRRGKNKVAAQNCRKRKLENIVELEQDLDHLKDEKEKLLKEKGENDKSLHLLKKQLSTLYLEVFSMLRDEDGKPYSPSEYSLQQTRDGNVFLVPKSKKPDVKKN", "values": [
      {"measurement": "S/N", "setting": "[9]", "value": 1}
    ]}
  ]
}
